Our source for the constitutive cleavage and shedding of AMA1^L/G, microneme secretion assay, saturating (1 µM) GST-D3 against GST; percent inhibition and amount of FLAG-tagged TgAMA1 ectodomain shed into the supernatant, constitutive microneme secretion assay, against GST-treated controls; dose dependent from 0.01 to 1 µM GST-D3, fold decrease values is PMC5021801.

The target of assay [1] is hypercleavable mutant form of TgAMA1 (AMA1^L/G) on Toxoplasma gondii tachyzoites (Toxoplasma gondii) (UniProt B6KAM0).
In assay [2] the target is FLAG-tagged wild-type TgAMA1 on Toxoplasma gondii tachyzoites (Toxoplasma gondii) (UniProt B6KAM0).

In assay [1], “D3 domain of TgRON2 fused to glutathione S-transferase (GST-D3) (domain or fragment)” registered a constitutive cleavage and shedding of AMA1^L/G, microneme secretion assay, saturating (1 µM) GST-D3 against GST; percent inhibition of 50%. In assay [2], this substance yielded an amount of FLAG-tagged TgAMA1 ectodomain shed into the supernatant, constitutive microneme secretion assay, against GST-treated controls; dose dependent from 0.01 to 1 µM GST-D3, fold decrease at 5 µM of 5.7 fold.
